Data reported in FireProtDB (doi:10.1021/bi980431i).

B1: Lysozyme C, P61626 (parent)
chain: MKALIVLGLVLLSVTVQGKVFERCELARTLKRLGMDGYRGISLANWMCLAKWESGYNTRATNYNAGDRSTDYGIFQINSRYWCNDGKTPGAVNACHLSCSALLQDNIADAVACAKRVVRDPQGIRAWVAWRNRCQNRDVRQYVQGCGV

Variants of: B1
Conditions: Homo sapiens; pH 2.69; Thermal; DSC; glycine 0.05 M; reversible: yes; structure 1LZ1; whole UniProt chain shown

Row | Variant | Tm | heat capacity change of unfolding | unfolding enthalpy (calorimetric) | unfolding enthalpy (van 't Hoff)
1 | MKALIVLGLVLLSVTVQGKVFERCELARTLKRLGMDGYRGISLANWMCLAKWESGYNTRATNYNAGDRSTDFGIFQINSRYWCNDGKTPGAVNACHLSCSALLQDNIADAVACAKRVVRDPQGIRAWVAWRNRCQNRDVRQYVQGCGV | 61.7 °C | 0.89 kcal/mol/K | 105 kcal/mol | 112 kcal/mol

Same assay, conditions: Homo sapiens; pH 2.7; 64.9 °C; Thermal; DSC; glycine 0.05 M; reversible: yes; structure 1LZ1; whole UniProt chain shown

Row | Variant | ddG of mutation (higher = less stable) | heat capacity change of unfolding
2 | MKALIVLGLVLLSVTVQGKVFERCELARTLKRLGMDGYRGISLANWMCLAKWESGYNTRATNYNAGDRSTDFGIFQINSRYWCNDGKTPGAVNACHLSCSALLQDNIADAVACAKRVVRDPQGIRAWVAWRNRCQNRDVRQYVQGCGV | 0.96 kcal/mol | 1.67 kcal/mol/K
3 | MKALIVLGLVLLSVTVQGKVFERCELARTLKRLGMDGYRGISLANWMCLAKWESGYNTRATNFNAGDRSTDYGIFQINSRYWCNDGKTPGAVNACHLSCSALLQDNIADAVACAKRVVRDPQGIRAWVAWRNRCQNRDVRQYVQGCGV | -0.07 kcal/mol | 1.1 kcal/mol/K
4 | MKALIVLGLVLLSVTVQGKVFERCELARTLKRLGMDGYRGISLANWMCLAKWESGFNTRATNYNAGDRSTDYGIFQINSRYWCNDGKTPGAVNACHLSCSALLQDNIADAVACAKRVVRDPQGIRAWVAWRNRCQNRDVRQYVQGCGV | 0.19 kcal/mol | 1.29 kcal/mol/K

Same assay, conditions: Homo sapiens; pH 2.7; Thermal; DSC; glycine 0.05 M; reversible: yes; structure 1LZ1; whole UniProt chain shown

Row | Variant | Tm | change of melting temperature, mutant - wild type (higher = more stable) | heat capacity change of unfolding | unfolding enthalpy (calorimetric) | unfolding enthalpy (van 't Hoff)
5 | MKALIVLGLVLLSVTVQGKVFERCELARTLKRLGMDGYRGISLANWMCLAKWESGYNTRATNYNAGDRSTDFGIFQINSRYWCNDGKTPGAVNACHLSCSALLQDNIADAVACAKRVVRDPQGIRAWVAWRNRCQNRDVRQYVQGCGV | 61.9 °C | -3 °C | 1.67 kcal/mol/K | 110 kcal/mol | 117 kcal/mol
6 | MKALIVLGLVLLSVTVQGKVFERCELARTLKRLGMDGYRGISLANWMCLAKWESGYNTRATNFNAGDRSTDYGIFQINSRYWCNDGKTPGAVNACHLSCSALLQDNIADAVACAKRVVRDPQGIRAWVAWRNRCQNRDVRQYVQGCGV | 65.1 °C | 0.2 °C | 1.1 kcal/mol/K | 112 kcal/mol | 118 kcal/mol
7 | MKALIVLGLVLLSVTVQGKVFERCELARTLKRLGMDGYRGISLANWMCLAKWESGFNTRATNYNAGDRSTDYGIFQINSRYWCNDGKTPGAVNACHLSCSALLQDNIADAVACAKRVVRDPQGIRAWVAWRNRCQNRDVRQYVQGCGV | 64.3 °C | -0.6 °C | 1.29 kcal/mol/K | 114 kcal/mol | 117 kcal/mol

Same assay, conditions: Homo sapiens; pH 2.82; Thermal; DSC; glycine 0.05 M; reversible: yes; structure 1LZ1; whole UniProt chain shown

Row | Variant | Tm | heat capacity change of unfolding | unfolding enthalpy (calorimetric) | unfolding enthalpy (van 't Hoff)
8 | MKALIVLGLVLLSVTVQGKVFERCELARTLKRLGMDGYRGISLANWMCLAKWESGYNTRATNYNAGDRSTDFGIFQINSRYWCNDGKTPGAVNACHLSCSALLQDNIADAVACAKRVVRDPQGIRAWVAWRNRCQNRDVRQYVQGCGV | 64 °C | 1.91 kcal/mol/K | 108 kcal/mol | 114 kcal/mol

Same assay, conditions: Homo sapiens; pH 2.99; Thermal; DSC; glycine 0.05 M; reversible: yes; structure 1LZ1; whole UniProt chain shown

Row | Variant | Tm | heat capacity change of unfolding | unfolding enthalpy (calorimetric) | unfolding enthalpy (van 't Hoff)
9 | MKALIVLGLVLLSVTVQGKVFERCELARTLKRLGMDGYRGISLANWMCLAKWESGYNTRATNYNAGDRSTDFGIFQINSRYWCNDGKTPGAVNACHLSCSALLQDNIADAVACAKRVVRDPQGIRAWVAWRNRCQNRDVRQYVQGCGV | 67 °C | 1.34 kcal/mol/K | 114 kcal/mol | 120 kcal/mol

Same assay, conditions: Homo sapiens; pH 3.13; Thermal; DSC; glycine 0.05 M; reversible: yes; structure 1LZ1; whole UniProt chain shown

Row | Variant | Tm | heat capacity change of unfolding | unfolding enthalpy (calorimetric) | unfolding enthalpy (van 't Hoff)
10 | MKALIVLGLVLLSVTVQGKVFERCELARTLKRLGMDGYRGISLANWMCLAKWESGYNTRATNYNAGDRSTDFGIFQINSRYWCNDGKTPGAVNACHLSCSALLQDNIADAVACAKRVVRDPQGIRAWVAWRNRCQNRDVRQYVQGCGV | 69.1 °C | 1.12 kcal/mol/K | 117 kcal/mol | 124 kcal/mol
11 | MKALIVLGLVLLSVTVQGKVFERCELARTLKRLGMDGYRGISLANWMCLAKWESGYNTRATNFNAGDRSTDYGIFQINSRYWCNDGKTPGAVNACHLSCSALLQDNIADAVACAKRVVRDPQGIRAWVAWRNRCQNRDVRQYVQGCGV | 72.5 °C | 1.63 kcal/mol/K | 121 kcal/mol | 127 kcal/mol

Same assay, conditions: Homo sapiens; pH 2.48; Thermal; DSC; glycine 0.05 M; reversible: yes; structure 1LZ1; whole UniProt chain shown

Row | Variant | Tm | heat capacity change of unfolding | unfolding enthalpy (calorimetric) | unfolding enthalpy (van 't Hoff)
12 | MKALIVLGLVLLSVTVQGKVFERCELARTLKRLGMDGYRGISLANWMCLAKWESGYNTRATNFNAGDRSTDYGIFQINSRYWCNDGKTPGAVNACHLSCSALLQDNIADAVACAKRVVRDPQGIRAWVAWRNRCQNRDVRQYVQGCGV | 61.4 °C | 0.89 kcal/mol/K | 109 kcal/mol | 115 kcal/mol

Same assay, conditions: Homo sapiens; pH 2.67; Thermal; DSC; glycine 0.05 M; reversible: yes; structure 1LZ1; whole UniProt chain shown

Row | Variant | Tm | heat capacity change of unfolding | unfolding enthalpy (calorimetric) | unfolding enthalpy (van 't Hoff)
13 | MKALIVLGLVLLSVTVQGKVFERCELARTLKRLGMDGYRGISLANWMCLAKWESGYNTRATNFNAGDRSTDYGIFQINSRYWCNDGKTPGAVNACHLSCSALLQDNIADAVACAKRVVRDPQGIRAWVAWRNRCQNRDVRQYVQGCGV | 64.6 °C | 1.34 kcal/mol/K | 112 kcal/mol | 117 kcal/mol

Same assay, conditions: Homo sapiens; pH 2.71; Thermal; DSC; glycine 0.05 M; reversible: yes; structure 1LZ1; whole UniProt chain shown

Row | Variant | Tm | heat capacity change of unfolding | unfolding enthalpy (calorimetric) | unfolding enthalpy (van 't Hoff)
14 | MKALIVLGLVLLSVTVQGKVFERCELARTLKRLGMDGYRGISLANWMCLAKWESGYNTRATNFNAGDRSTDYGIFQINSRYWCNDGKTPGAVNACHLSCSALLQDNIADAVACAKRVVRDPQGIRAWVAWRNRCQNRDVRQYVQGCGV | 64.9 °C | 1.15 kcal/mol/K | 111 kcal/mol | 117 kcal/mol
15 | MKALIVLGLVLLSVTVQGKVFERCELARTLKRLGMDGYRGISLANWMCLAKWESGFNTRATNYNAGDRSTDYGIFQINSRYWCNDGKTPGAVNACHLSCSALLQDNIADAVACAKRVVRDPQGIRAWVAWRNRCQNRDVRQYVQGCGV | 64.6 °C | 1.03 kcal/mol/K | 113 kcal/mol | 117 kcal/mol

Same assay, conditions: Homo sapiens; pH 2.89; Thermal; DSC; glycine 0.05 M; reversible: yes; structure 1LZ1; whole UniProt chain shown

Row | Variant | Tm | heat capacity change of unfolding | unfolding enthalpy (calorimetric) | unfolding enthalpy (van 't Hoff)
16 | MKALIVLGLVLLSVTVQGKVFERCELARTLKRLGMDGYRGISLANWMCLAKWESGYNTRATNFNAGDRSTDYGIFQINSRYWCNDGKTPGAVNACHLSCSALLQDNIADAVACAKRVVRDPQGIRAWVAWRNRCQNRDVRQYVQGCGV | 68.7 °C | 0.65 kcal/mol/K | 116 kcal/mol | 122 kcal/mol

Same assay, conditions: Homo sapiens; pH 2.92; Thermal; DSC; glycine 0.05 M; reversible: yes; structure 1LZ1; whole UniProt chain shown

Row | Variant | Tm | heat capacity change of unfolding | unfolding enthalpy (calorimetric) | unfolding enthalpy (van 't Hoff)
17 | MKALIVLGLVLLSVTVQGKVFERCELARTLKRLGMDGYRGISLANWMCLAKWESGFNTRATNYNAGDRSTDYGIFQINSRYWCNDGKTPGAVNACHLSCSALLQDNIADAVACAKRVVRDPQGIRAWVAWRNRCQNRDVRQYVQGCGV | 67.2 °C | 1.46 kcal/mol/K | 117 kcal/mol | 121 kcal/mol

Same assay, conditions: Homo sapiens; pH 3.1; Thermal; DSC; glycine 0.05 M; reversible: yes; structure 1LZ1; whole UniProt chain shown

Row | Variant | Tm | heat capacity change of unfolding | unfolding enthalpy (calorimetric) | unfolding enthalpy (van 't Hoff)
18 | MKALIVLGLVLLSVTVQGKVFERCELARTLKRLGMDGYRGISLANWMCLAKWESGFNTRATNYNAGDRSTDYGIFQINSRYWCNDGKTPGAVNACHLSCSALLQDNIADAVACAKRVVRDPQGIRAWVAWRNRCQNRDVRQYVQGCGV | 70.3 °C | 0.96 kcal/mol/K | 121 kcal/mol | 124 kcal/mol

Same assay, conditions: Homo sapiens; pH 3.25; Thermal; DSC; glycine 0.05 M; reversible: Yes; structure 1LZ1; whole UniProt chain shown

Row | Variant | Tm | heat capacity change of unfolding | unfolding enthalpy (calorimetric) | unfolding enthalpy (van 't Hoff)
19 | MKALIVLGLVLLSVTVQGKVFERCELARTLKRLGMDGYRGISLANWMCLAKWESGFNTRATNYNAGDRSTDYGIFQINSRYWCNDGKTPGAVNACHLSCSALLQDNIADAVACAKRVVRDPQGIRAWVAWRNRCQNRDVRQYVQGCGV | 72.4 °C | 1.12 kcal/mol/K | 123 kcal/mol | 126 kcal/mol
